This assay concerns NLGN3 protein in SU-pcGBM2 cells. Nature of the assay: Western blot of NLGN3 protein expression in glioma cells. The class given is cell-based, human. Particulars: 50 nM NLGN3 for 12 hours, then 24 hours recovery in fresh media. Here is the method:
A) Signaling through the PI3K pathway increases in response to NLGN3. Representative Western blot illustrating increased phosphorylation of AKT in response to various concentrations of NLGN3 ranging from 0-50 nM. p-AKT is shown in top panel; total AKT is shown in the bottom panel. B) Quantification of the increased fold change of pAKT/AKT ratio in response to NLGN3 at various doses (oneway ANOVA, F=17.99, P<001; data shown as mean±SEM; *P<0.05, **P<0.01, ***P<0.001 by Tukey's post-hoc tests to further examine pairwise comparisons). Fold change is normalized to blank media (aCSF). (C) Fos mRNA expression increases after 1 hour exposure to […] 50 nM NLGN3 (data shown as mean±SEM; **P<0.01 by unpaired two-tailed Student's t-test). D) NLGN3 mRNA expression increases after 12 hour exposure to 50 nM NLGN3 vs. vehicle in SU-[…] cells. Data shown as mean±SEM; *P<0.05 by unpaired two-tailed Student's t-test. […]
Endogenous protein levels were determined using Western blot analysis. […]
Briefly, in FIG. 5, panel A, cells were lysed after 1-hour exposure to 0 nM, 5 nM, 10 nM, or 50 nM recombinant NLGN3 (Origene Technologies, Rockville, Md.), using RIPA buffer and protease inhibitors. […] Protein concentration in the lysate was determined using a Bradford assay. […] Proteins were visualized using Clarity ECL Western Substrate (BioRad, Hercules, Calif.) and quantified using ImageJ.

For one molecule, NLGN3 protein expression results are on record in patent US10377818B2, “Method of treating glioma” (The Board of Trustees of the Leland Stanford Junior …, priority 2015, dated 2019).

B1: NLGN3: Recombinant full-length neuroligin-3 (Origene), tested as glioma mitogen (protein, listed as Mus musculus)
chain: MWLQPSLSLSPTPTVGRSLCLTLGFLSLVLRASTQAPAPTVNTHFGKLRGARVPLPSEILGPVDQYLGVPYAAPPIGEKRFLPPEPPPSWSGIRNATHFPPVCPQNIHTAVPEVMLPVWFTANLDIVATYIQEPNEDCLYLNVYVPTEDGSGAKKQGEDLADNDGDEDEDIRDSGAKPVMVYIHGGSYMEGTGNMIDGSVLASYGNVIVITLNYRVGVLGFLSTGDQAAKGNYGLLDQIQALRWVSENIAFFGGDPRRITVFGSGIGASCVSLLTLSHHSEGLFQRAIIQSGSALSSWAVNYQPVKYTSLLADKVGCNVLDTVDMVDCLRQKSAKELVEQDIQPARYHVAFGPVIDGDVIPDDPEILMEQGEFLNYDIMLGVNQGEGLKFVEGVVDPEDGVSGTDFDYSVSNFVDNLYGYPEGKDTLRETIKFMYTDWADRDNPETRRKTLVALFTDHQWVEPSVVTADLHARYGSPTYFYAFYHHCQSLMKPAWSDAAHGDEVPYVFGVPMVGPTDLFPCNFSKNDVMLSAVVMTYWTNFAKTGDPNKPVPQDTKFIHTKANRFEEVAWSKYNPRDQLYLHIGLKPRVRDHYRATKVAFWKHLVPHLYNLHDMFHYTSTTTKVPPPDTTHSSHITRRPNGKTWSTKRPAISPAYSNENAPGSWNGDQDAGPLLVENPRDYSTELSVTIAVGASLLFLNVLAFAALYYRKDKRRQEPLRQPSPQRGTGAPELGTAPEEELAALQLGPTHHECEAGPPHDTLRLTALPDYTLTLRRSPDDIPLMTPNTITMIPNSLVGLQTLHPYNTFAAGFNSTGLPHSHSTTRV
On to B1, for which the NLGN3 protein expression entry is on record as “Protein expression of NLGN3 following glioma cell NLGN3 exposure was confirmed”.
